Paper PMC4975591

Molecular target: T1, Full-length cysteine string protein CSP(1-198), Q9H3Z4
T1 chain: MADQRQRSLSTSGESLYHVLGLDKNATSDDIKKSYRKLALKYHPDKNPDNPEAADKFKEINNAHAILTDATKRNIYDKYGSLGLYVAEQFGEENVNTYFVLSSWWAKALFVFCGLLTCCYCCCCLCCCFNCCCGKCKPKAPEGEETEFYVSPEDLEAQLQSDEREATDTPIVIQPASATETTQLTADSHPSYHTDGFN
Assay: AUC; sedimentation velocity, 50,000 rpm, 20.1°C, 9 hr, absorbance at 279 nm; self-association of purified recombinant protein
Conditions: remark: other sources report otherwise

B1: Full-length cysteine string protein CSP(1-198), Q9H3Z4 1-198 (natural protein)
chain: T1 chain
stoichiometry N: > 10 subunits
